Data taken from US20140017240A1 (University of California, published 2014).

What was measured:
[1] = target: T1, N-cadherin extracellular domains one to three recombinant protein with GST tag (human) (UniProt P19022); test: phage ELISA, plate coated with ECD1-3-GST
T1 sequence (looked up): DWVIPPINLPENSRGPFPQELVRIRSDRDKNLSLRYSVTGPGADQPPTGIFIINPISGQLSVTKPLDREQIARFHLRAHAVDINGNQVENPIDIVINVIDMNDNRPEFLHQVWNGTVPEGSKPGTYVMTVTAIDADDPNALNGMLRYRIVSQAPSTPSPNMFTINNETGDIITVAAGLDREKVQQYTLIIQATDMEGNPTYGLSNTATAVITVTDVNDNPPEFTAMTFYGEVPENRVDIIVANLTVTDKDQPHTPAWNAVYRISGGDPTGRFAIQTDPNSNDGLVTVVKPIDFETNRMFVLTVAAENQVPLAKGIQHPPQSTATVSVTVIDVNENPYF

[2] = target: N-cadherin on the cell surface (PC3 cells and LNCaP N-cadherin transfected cells) (human) (UniProt P19022); test: flow cytometry, phage clone on N-cadherin positive cells (cell line not stated)
[3] = target: T1, N-cadherin extracellular domains one to three recombinant protein with GST tag (human); test: phage ELISA, second phage batch, plate coated with ECD1-3-GST
[4] = target: T2, N-cadherin extracellular domains one to three recombinant protein with 6 histidine tag (human) (UniProt P19022); test: phage ELISA, plate coated with ECD1-3-6HIS
T2 sequence (looked up): T1 sequence (looked up)

[5] = target: T2, N-cadherin extracellular domains one to three recombinant protein with 6 histidine tag (human); test: phage ELISA, second phage batch, plate coated with ECD1-3-6HIS
[6] = target: T3, N-cadherin on the cell surface (PC3 cells and LNCaP N-cadherin transfected cells) (human, UniProt P19022 160-906); test: flow cytometry, diabody on N-cadherin positive cells
T3 construct: whole, on cells; DU145 and untransfected LNCaP cells served as N-cadherin negative cells; also called cellular N-cadherin; cell surface N-cadherin
T3 sequence (looked up): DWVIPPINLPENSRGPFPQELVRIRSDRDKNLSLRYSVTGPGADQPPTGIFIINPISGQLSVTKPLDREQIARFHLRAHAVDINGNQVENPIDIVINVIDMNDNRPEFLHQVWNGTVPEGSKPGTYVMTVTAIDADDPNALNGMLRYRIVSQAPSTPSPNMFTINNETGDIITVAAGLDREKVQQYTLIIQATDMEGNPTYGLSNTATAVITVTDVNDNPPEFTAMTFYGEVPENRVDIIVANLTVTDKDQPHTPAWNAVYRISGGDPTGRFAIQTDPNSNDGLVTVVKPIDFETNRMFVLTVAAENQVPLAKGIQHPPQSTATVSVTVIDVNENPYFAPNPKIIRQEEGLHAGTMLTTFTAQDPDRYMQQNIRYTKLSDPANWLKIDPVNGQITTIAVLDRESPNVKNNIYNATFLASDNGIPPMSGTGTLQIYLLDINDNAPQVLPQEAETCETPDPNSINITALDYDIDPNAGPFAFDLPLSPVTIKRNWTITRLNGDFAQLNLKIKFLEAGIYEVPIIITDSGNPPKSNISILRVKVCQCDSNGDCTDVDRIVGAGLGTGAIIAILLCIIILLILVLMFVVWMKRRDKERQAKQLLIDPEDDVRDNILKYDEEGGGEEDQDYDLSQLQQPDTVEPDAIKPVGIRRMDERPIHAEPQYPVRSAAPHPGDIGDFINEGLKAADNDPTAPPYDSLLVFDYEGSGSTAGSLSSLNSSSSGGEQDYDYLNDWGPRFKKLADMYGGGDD
Procedure: Flow cytometry was conducted to assess binding of phage antibody clones and diabodies to cellular N-cadherin. For phage antibody staining supernatant concentrated 20 times was used. Individual clones were grown in 20 ml 2TY to a density of 0.5 O.D_{600 nm} when phage were rescued with helper phages. After an overnight culture, monoclonal phage were harvested from the supernatant by precipitation with PEG/NaCl and resuspended in 1 ml PBS/1% BSA. For flow cytometry staining, 5×10⁵ cells were incubated for one hour on ice with 100 μl of 20×PEG concentrated phage antibody clone. Cells were washed in flow buffer (PBS 1% FBS, 1 mM EDTA, 0.02% Sodium azide) and the phage antibody clones detected with monoclonal anti-M13 antibody (Amersham Biosciences). Cells were washed and stained with R-PE congugated anti-mouse antibody. For diabody staining, 5×10⁵ cells were incubated for one hour on ice with the diabody at a 2 μg/ml concentration in flow buffer. Cells were washed and the diabody detected with 1/100 anti-c-Myc-biotin antibody in flow buffer. Cells were finally washed and stained with 1/40 Streptavidin-R-PE (SIGMA) in flow buffer.
The eleven individual phage clones selected by ELISA were tested for cell binding of N-cadherin positive cells (PC3 and LNCaP N-cadherin transfected cells) by flow cytometry. […]

[7] = target: T3, N-cadherin on the cell surface (PC3 …); test: flow cytometry, diabody at 2 ug/ml on PC3 cells
[8] = target: T4, N-cadherin extracellular domains one to three recombinant protein with 6 histidine tag (human, UniProt P19022 160-497); test: phage ELISA
T4 construct: range 160-497; Expressed in bacteria and purified from the periplasmic fraction on Ni-NTA; also called ECD1-3-6HIS; ECD1-3 6HIS; not shown: 6 histidine tag
T4 sequence (looked up): T1 sequence (looked up)

B1: A8 phage antibody clone (truncated) (scFv)
scFv: MAQVQLQESGWYFDLWGRGTPVTVSSGGGGSGGGGSGGGGSEIVLTQSPSSLSASVGDRVTITCRASQGIRNDLGWYQQKPGKAPKLLIYAASSLQSGVPSRFSGSGSGTDFTLTISSLQPEDFATYYCLQDYNGWTFGQGTKVEIKR
[1]
  1st ELISA (O.D): 0.17 O.D
[2]
  Flow Cytometry (MFI): 30 MFI
[3]
  2nd ELISA (O.D): 0.05 O.D
[4]
  1st ELISA (O.D): 0.25 O.D
[5]
  2nd ELISA (O.D): 0.11 O.D

B2: D4 phage antibody clone (scFv)
scFv: MAQVQLVQSGAEVKRPGASVRISCKASGYPFTTYPIHWVRQAPGQGLEWMGGINPNSGATKNVQKFQGRVTMTADTSIRTAYMELSRLTSDDTAVYYCARGEGDTGSYLGGYWGLGTLVTVSSGGGGSGGGGSGGGGSSELTQDPAVSVALGQTVRITCQGDSLRSYYASWYQQKPGRAPLLVIYGKNIRPSGIPDRFSGSSSGNSASLTITGAQAEDEADYYCNSRDRSGNYLFGVGTKVTVLG
[2]
  Flow Cytometry (MFI): 0 MFI

B3: A14 diabody (other)
chain: MAQVQLVQSGGGLAQPGGSLRLSCAASGFTFSRHAMIWVRQAPGKGLEWVSSISGSSDSTSYADSVKGRFTISRDNSKNTLYLQMNTLRAEDTAVYYCAKATGYSYYYGMDVWGPGTTVTVSSGGGGSDIQMTQSPSSLSASLGDRVTITCRASQGISNYLAWYQQKPGKAPKLLIYGATTLQHGVPSRFSGSGSGTDFSLTISSLQPEDFAIYFCQQAHSFPPTFGGGTKLEIKR
notes: Diabody (small bivalent antibody fragment) made from the scFv by shortening the linker from 15 to 5 a.a; also called A14 Db; not shown: c-Myc and 6HIS tags from the pSyn1 vector
[6]
  binding result: binds

B4: E4 diabody (other)
chain: MAQVQLVQSGAEVKKPGESLEISCKGSGYSFANNWIGWVRQMPGKGLEWMGSIYPGDSDVRYSRSFQGHVTISADKSISTAYLQWSSLKASDTAMYYCARHRVAYSGYDAFDIWGQGTMVTVSSGGGGSSVLTQDPAVSVALGQTVRITCQGDSLRSYYPSWYQQKPGQAPVLVIYGKNNRPSGIPDRFSGSSSGNTASLTITGAQAEDEADYYCHSRDRSGNQVLFGGGTKVTVLG
notes: Diabody made from the scFv by shortening the linker; also called E4 Db; not shown: c-Myc and 6HIS tags from the pSyn1 vector
[6]
  binding result: binds

B5: D4 diabody (other)
chain: MAQVQLVQSGAEVKRPGASVRISCKASGYPFTTYPIHWVRQAPGQGLEWMGGINPNSGATKNVQKFQGRVTMTADTSIRTAYMELSRLTSDDTAVYYCARGEGDTGSYLGGYWGLGTLVTVSSGGGGSSELTQDPAVSVALGQTVRITCQGDSLRSYYASWYQQKPGRAPLLVIYGKNIRPSGIPDRFSGSSSGNSASLTITGAQAEDEADYYCNSRDRSGNYLFGVGTKVTVLG
notes: Diabody made from the scFv by shortening the linker; also called D4 Db; not shown: c-Myc and 6HIS tags from the pSyn1 vector
[7]
  binding result: binds

B6: A14 ScFv phage antibody clone (scFv)
scFv: MAQVQLVQSGGGLAQPGGSLRLSCAASGFTFSRHAMIWVRQAPGKGLEWVSSISGSSDSTSYADSVKGRFTISRDNSKNTLYLQMNTLRAEDTAVYYCAKATGYSYYYGMDVWGPGTTVTVSSGGGGSGGGGSGGGGSDIQMTQSPSSLSASLGDRVTITCRASQGISNYLAWYQQKPGKAPKLLIYGATTLQHGVPSRFSGSGSGTDFSLTISSLQPEDFAIYFCQQAHSFPPTFGGGTKLEIKR
notes: Clone A1 was renamed A14; Selected on ECD4-6HIS; also called A14 (A1)
[8]
  binding result: no binding
